Tested on: Escherichia coli TOP10
Experiment: shrunken log2 fold change of peptide-encoding DNA abundance (4.5 h post-induction vs induction); higher = less antimicrobial activity (less host growth inhibition)
Settings: time post-induction: 4.5 h; library: site-saturation at positions 5, 18, 19, 20
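Note: peptides expressed intracellularly from a pBAD plasmid library in pooled LB shake-flask culture, induced with 0.3% L-arabinose, DNA abundance read by NGS, three biological replicates, DESeq2 with apeglm shrinkage.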

Sequence | shrunken log2 fold change
RRIRRRPPRLPRPRPRPKNYPRP | -0.177
RRIRDRPPRLPRPRPRPMYMPRP | -0.00623
RRIRFRPPRLPRPRPRPVHHPRP | -0.00203
RRIRPRPPRLPRPRPRPPRCPRP | 0.408
RRIRTRPPRLPRPRPRPALKPRP | 0.206
RRIRNRPPRLPRPRPRPRIPPRP | 0.157
RRIRNRPPRLPRPRPRPERPPRP | 0.499
RRIRGRPPRLPRPRPRPKIHPRP | 0.373
RRIRFRPPRLPRPRPRPYDGPRP | -0.18
RRIRRRPPRLPRPRPRPSDQPRP | 0.0918
RRIRYRPPRLPRPRPRPMDTPRP | -0.216
RRIRIRPPRLPRPRPRPPQSPRP | 0.0652
RRIRIRPPRLPRPRPRPTIAPRP | -0.327
RRIRERPPRLPRPRPRPDIWPRP | -0.0258
RRIRVRPPRLPRPRPRPSCPPRP | -0.245
RRIRHRPPRLPRPRPRPNNQPRP | -0.465
RRIRMRPPRLPRPRPRPIYIPRP | -0.156
RRIRDRPPRLPRPRPRPTSTPRP | 0.231
RRIRNRPPRLPRPRPRPSWFPRP | -0.398
RRIRLRPPRLPRPRPRPWMGPRP | -0.363
RRIRHRPPRLPRPRPRPAQGPRP | -0.197
RRIRERPPRLPRPRPRPNFPPRP | -0.169
RRIRHRPPRLPRPRPRPHRQPRP | -0.0335

Sequence | shrunken log2 fold change
RRIRDRPPRLPRPRPRPSACPRP | 0.294
RRIRQRPPRLPRPRPRPHFGPRP | -0.0794
RRIRYRPPRLPRPRPRPQTHPRP | -1.08
RRIRGRPPRLPRPRPRPHIHPRP | -0.0259
RRIRVRPPRLPRPRPRPQGWPRP | 0.522
RRIRYRPPRLPRPRPRPNKHPRP | -0.916
RRIRNRPPRLPRPRPRPNDMPRP | -0.457
RRIRCRPPRLPRPRPRPMTNPRP | -0.434
RRIRIRPPRLPRPRPRPYGFPRP | -0.0889
RRIRCRPPRLPRPRPRPDWTPRP | -0.268
RRIRRRPPRLPRPRPRPLKSPRP | -0.215
RRIRDRPPRLPRPRPRPPNPPRP | 0.0735
RRIRMRPPRLPRPRPRPPARPRP | 1.4
RRIRCRPPRLPRPRPRPSPMPRP | 0.0865
RRIRVRPPRLPRPRPRPKEVPRP | 0.177
RRIRKRPPRLPRPRPRPNAYPRP | -0.082
RRIRRRPPRLPRPRPRPQTGPRP | 0.0354
RRIRDRPPRLPRPRPRPQGQPRP | 0.000653
RRIRVRPPRLPRPRPRPIDIPRP | -0.11
RRIRCRPPRLPRPRPRPPQKPRP | 0.627
RRIRQRPPRLPRPRPRPDRCPRP | 0.298
RRIRNRPPRLPRPRPRPYSIPRP | -0.534
RRIRPRPPRLPRPRPRPRLPPRP | 0.383

Sequence | shrunken log2 fold change
RRIRNRPPRLPRPRPRPKMPPRP | 0.341
RRIRCRPPRLPRPRPRPRGIPRP | 0.094
RRIRWRPPRLPRPRPRPLAQPRP | 0.469
RRIRGRPPRLPRPRPRPTKGPRP | 0.2
RRIRERPPRLPRPRPRPFFPPRP | -0.241
RRIRLRPPRLPRPRPRPLDPPRP | 0.061
RRIRYRPPRLPRPRPRPWREPRP | 0.0494
RRIRQRPPRLPRPRPRPQLRPRP | -0.165
RRIRGRPPRLPRPRPRPLEQPRP | 0.435
RRIRNRPPRLPRPRPRPVKMPRP | -0.107
RRIRERPPRLPRPRPRPCQYPRP | -0.138
RRIRDRPPRLPRPRPRPFSKPRP | -0.488
RRIRGRPPRLPRPRPRPFPVPRP | 0.291
RRIRTRPPRLPRPRPRPHAHPRP | -0.117
RRIRSRPPRLPRPRPRPFDIPRP | -0.639
RRIRCRPPRLPRPRPRPIVQPRP | 0.0655
RRIRQRPPRLPRPRPRPRPEPRP | 0.646
RRIRLRPPRLPRPRPRPRTCPRP | -0.258
RRIRKRPPRLPRPRPRPVMFPRP | 0.124
RRIRMRPPRLPRPRPRPPGYPRP | 0.599
RRIRSRPPRLPRPRPRPYWCPRP | -0.161
RRIRSRPPRLPRPRPRPLERPRP | -0.0196
RRIRNRPPRLPRPRPRPHQTPRP | -0.0525

Sequence | shrunken log2 fold change
RRIRDRPPRLPRPRPRPDWQPRP | 0.252
RRIRERPPRLPRPRPRPYNEPRP | -0.178
RRIRYRPPRLPRPRPRPHGYPRP | -0.0146
RRIRIRPPRLPRPRPRPIYRPRP | -0.191
RRIRPRPPRLPRPRPRPPKRPRP | 0.496
RRIRARPPRLPRPRPRPQMFPRP | -0.046
RRIRIRPPRLPRPRPRPHLLPRP | 0.0103
RRIRYRPPRLPRPRPRPFSKPRP | -0.107
RRIRTRPPRLPRPRPRPTMNPRP | -0.371
RRIRHRPPRLPRPRPRPLEHPRP | -0.00318
RRIRWRPPRLPRPRPRPSTEPRP | 0.0764
RRIRERPPRLPRPRPRPAVHPRP | -0.144
RRIRERPPRLPRPRPRPVWNPRP | -0.165
RRIRGRPPRLPRPRPRPRHIPRP | 0.192
RRIRKRPPRLPRPRPRPCVWPRP | 0.205
RRIRVRPPRLPRPRPRPFPTPRP | 0.756
RRIRSRPPRLPRPRPRPPENPRP | 0.679
RRIRQRPPRLPRPRPRPAKGPRP | 0.01
RRIRERPPRLPRPRPRPWCEPRP | -0.349
RRIRERPPRLPRPRPRPGTEPRP | -0.049
RRIRTRPPRLPRPRPRPMLWPRP | 0.143
RRIRWRPPRLPRPRPRPTFGPRP | -0.0806
